According to PMC7655802, “Antibiotic-induced DNA damage results in a controlled loss of pH homeostasis and genome instability”:

B1: dT79 (ssDNA)
DNA: TTTTTTTTTTTTTTTTTTTTTTTTTTTTTTTTTTTTTTTTTTTTTTTTTTTTTTTTTTTTTTTTTTTTTTTTTTTTTTT
B2: 90mer oligonucleotide (ssDNA)
DNA: AAATCAATCTAAAGTATATATGAGTAAACTTGGTCTGACAGTTACCAATGCTTAATCAGTGAGGCACCTATCTCAGCGATCTGTCTATTT

Experiments:
[1] = molecular target: T1, RecA (UniProt P0A7G6 2-353); assay: stopped-flow fluorescence; pH 5; 1 mM ATP, 10 mM Mg2+; binds in less than 1 s; EMSA: 50 mM phosphate/citrate pH 5-8, 50 mM NaCl, 10 mM MgCl2, 1 mM ATP, 25 C, 5 min, then 0.125% glutaraldehyde; stopped-flow: 20 nM dT79, 1 mM ATP, 10 mM MgCl2; conditions: protein: commercial; label: 5'-Cy3; single strand
[2] = molecular target: T1, RecA; assay: EMSA (glutaraldehyde-fixed); pH 5; 1 mM ATP, 10 mM Mg2+; EMSA: 50 mM phosphate/citrate pH 5-8, 50 mM NaCl, 10 mM MgCl2, 1 mM ATP, 25 C, 5 min, then 0.125% glutaraldehyde; stopped-flow: 20 nM dT79, 1 mM ATP, 10 mM MgCl2; conditions: protein: commercial; label: 5'-FITC; single strand

T1 sequence (P0A7G6 2-353): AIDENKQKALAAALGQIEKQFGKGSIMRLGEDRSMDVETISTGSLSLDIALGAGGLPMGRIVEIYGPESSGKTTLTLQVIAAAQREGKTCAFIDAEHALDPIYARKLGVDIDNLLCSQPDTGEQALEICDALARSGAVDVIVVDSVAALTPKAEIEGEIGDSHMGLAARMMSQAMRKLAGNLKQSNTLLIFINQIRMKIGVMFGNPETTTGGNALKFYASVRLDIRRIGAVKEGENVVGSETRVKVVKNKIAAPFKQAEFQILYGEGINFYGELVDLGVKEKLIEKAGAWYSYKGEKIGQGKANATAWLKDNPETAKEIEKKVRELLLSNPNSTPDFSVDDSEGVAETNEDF

Row | Binder | binding result [1] | binding signal [2]
1 | B1 | binds | –
2 | B2 | – | ~10 fold higher affinity at pH 5 than at pH 8
